The values below come from publication PMC8761896.

For one test, the target named is VRC01gl Fab with G107aL. Nature of the test: dynamic light scattering.
For test [1], the target named is VRC01gl Fab with comL ('VQ' insertion at 103aL and 103bL, L104VL, E105DL). Nature of the test: dynamic light scattering.
The target of another test is BG505-SOSIP (UniProt Q2N0S6).

What is called stoichiometry N is the number of molecules, sites or subunits per partner or assembly. In the test with VRC01gl Fab with G107aL, VRC01gl Fab with G107aL came in with a stoichiometry N of 2.

With “VRC01gl Fab with comL ('VQ' insertion at 103aL and 103bL, L104VL, E105DL)”, the stoichiometry N in test [1] was 4.

The term Kd denotes the constant that tells how readily two partners part at equilibrium. A lower Kd goes with higher affinity. The koff is the rate constant with which the complex falls apart. Low readings indicate a long-lived complex, high ones a short-lived complex. As a reminder, the kon is a measure of how fast the partners come together. A lower kon goes with slower complex formation. Take 3BNC131 Fab H:Q39L: in the test with BG505-SOSIP, the Kd amounted to 21.2 nM, the koff was found to be 0.00095 s⁻¹ and the kon amounted to 44800 M⁻¹ s⁻¹.

As for N6 Fab L:H38Q, in the test with BG505-SOSIP, the Kd was 0.0781 nM, the koff was determined as 6.04e-06 s⁻¹ and the kon stood at 76800 M⁻¹ s⁻¹.
